Assay results published in US20250235545A1, “POLYPEPTIDE CONJUGATE AND USE THEREOF” (SHANGHAI CHIXI BIOMEDICAL TECHNOLOGY CO., LTD, priority 2024, published 2025).
In brackets after ≈: the same amount, converted by molar mass. Read-outs that look alike come from different tables or passages of the source. Where a SMILES comes first, the peptide text is derived from it. The star is where a group is joined. NEt(2-(20S-CPT-7-yl)ethyl) = CCN(CCc1c2c(nc3ccccc13)-c1cc3c(c(=O)n1C2)COC(=O)[C@]3(O)CC)*; Belotecan = CC[C@@]1(O)C(=O)OCc2c1cc1n(c2=O)Cc2c-1nc1ccccc1c2CCN(C(C)C)*; Propanoyl(3-maleimido) = O=C1C=CC(=O)N1CCC(=O)*; PEG6 = NCCOCCOCCOCCOCCOCCOCCC(=O)O

Key:
[1] = test system: sarcoma SJSA-1 tumor model; conditions: Table 7
In short: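 SJSA-1 cells (2×10^7, DMEM/10% FBS, under 15 passages) implanted subcutaneously in right chest of female BALB/c nude mice, 6-8 weeks old. At ≥100 mm^3, randomized three per group; dosing once weekly for three weeks, saline as control, day 1 = first treatment.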

[2] = test system: colo320 colorectal cancer tumor model
In short: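 Female BALB/c nude mice, 6–8 weeks old, received 7.5×10^6 colo320 cells subcutaneously in the right chest. Once tumors reached at least 120 mm^3 they were randomized three per group. Treatment with test agents or saline control was given once weekly for four weeks.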

[3] = test system: sarcoma SJSA-1 tumor model; assay: Efficacy in animal model of sarcoma SJSA-1, 30 mg/kg once a week for two weeks (Example 40); format: in vivo, BALB/c mice; conditions: 30 mg/kg once a week for two weeks
Experimental: Test objective: To further compare the antitumor efficacy of different polypeptide Linkers in an animal tumor model of sarcoma SJSA-1.
Test drug: Polypeptide conjugate and normal saline control group.
The control group was administered normal saline. Administration was performed once a week for two weeks.

[4] = Tumor homogenate activation efficiency, non-small cell lung cancer tissue (Examples 28, 37); format: in vitro ADME; conditions: pH 5.0, 37° C., 2 h; Table 10
In short: (§1)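 Conjugate at 1 mg/ml in pH 5.0 buffer (50 mM MES, 250 mM NaCl) incubated with 100 μg tissue homogenate at 37° C. for 2 h. HPLC read-out; release % = Belotecan peak area over total area of Belotecan plus all Belotecan-containing species.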

[5] = Tumor homogenate activation efficiency, sarcoma tissue (Examples 28, 37); format: in vitro ADME; conditions: pH 5.0, 37° C., 2 h; Table 10
In short: as §1

[6] = Tumor homogenate activation efficiency, breast cancer tissue (Examples 28, 37); format: in vitro ADME; conditions: pH 5.0, 37° C., 2 h; Table 10
In short: as §1

[7] = MTD determination in mice (Examples 27, 36, 44); format: in vivo; conditions: female, mouse, in vivo; mice, monitored for 14 d; Table 9
Excerpt: Test animals: 6-8 weeks old mice, all female; mice were grouped randomly, with six mice in each group, administered with drugs at different concentration gradients separately and monitored for 14 d. A mouse was euthanized at a loss of 20% of its initial weight and deemed to have died of poisoning.

[8] = test system: SKBR3 (breast cancer tissue); assay: cells; format: cell-based; conditions: CCK8, 48 h; Table 6
In short: (§2)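 Cells seeded at 5,000 cells/well in RPMI1640 or DMEM high-glucose with 10% FBS and 1 mM sodium pyruvate, exposed to graded drug concentrations for 48 h at 37° C., 5% CO2; 0.1% DMSO controls. CCK8 added for ~2 h, absorbance 450 nm; survival rates and IC50 calculated.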

A2780 (ovarian cancer) = assay: cells; format: cell-based; conditions: CCK8, 48 h; Table 6
In short: as §2

[9] = test system: A549 (non-small cell lung cancer); assay: cells; format: cell-based; conditions: CCK8, 48 h; Table 6
In short: as §2

SJSA-1 (sarcoma tissue) = assay: cells; format: cell-based; conditions: CCK8, 48 h; Table 6
In short: as §2

[10] = Tumor homogenate activation efficiency, colorectal cancer tissue (Example 37); format: in vitro ADME; conditions: pH 5.0, 37° C., 2 h; Table 10
Experimental: Buffer preparation: 50 mM PH buffer (MES), 250 mM NaCl, pH adjusted to 5.0 with 0.5 M of sodium hydroxide.
The polypeptide conjugate was prepared into a 1 mg/ml solution with pH 5.0 buffer, 100 μg of tumor tissue homogenate was added, (the tumor tissue homogenate was the homogenate of tumor tissues prepared with a Jingxin F6/10 handheld homogenizer), and the solution was placed at 37° C. for 2 h. The tumor tissue homogenate could effectively activate the polypeptide conjugate and release Belotecan, and the activation efficiencies of the drugs in tumor tissues were compared by HPLC allowing determination of a decrease in the compounds and an increase in Belotecan:
Release percentage=peak area of Belotecan/total peak area of Belotecan and all other Belotecan-containing compounds

[11] = test system: colo320 (colorectal cancer tissue); assay: cells; format: cell-based; conditions: CCK8, 48 h; Table 6
In short: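 Colo320 cells, 5,000 per well, exposed to drug concentration series for 48 h at 37 °C, 5% CO2 (0.1% DMSO controls). Viability by CCK8, absorbance at 450 nm after about 2 h. Survival rates and IC50 calculated.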

[12] = Tumor homogenate activation efficiency, ovarian cancer tissue (Examples 28, 37); format: in vitro ADME; conditions: pH 5.0, 37° C., 2 h; Table 10
In short: as §1

[13] = Homogenate activation efficiency, heart tissue (Examples 28, 37); format: in vitro ADME; conditions: pH 5.0, 37° C., 2 h; Table 10
[14] = 15 mg/kg once a week for three weeks
[15] = 45 mg/kg once a week for three weeks
[16] = 45 mg/kg once a week for four weeks, Table 8
[17] = Table 14 (Example 43), dose 45 mg/kg, once a week for four weeks, BALB/c mice

Row | SMILES | Mouse weight (%) [1, 14] | Mouse weight (%) [1, 15] | Mouse weight (%) [2, 16] | Mouse weight (%) [2, 17] | Mouse weight (%) on Day 14 ([3]; Day 14) | Percentage of release efficiency (%) Non-small cell lung cancer tissue (A549) [4] | Percentage of release efficiency (%) Sarcoma tissue (SJSA1) [5] | Percentage of release efficiency (%) Breast cancer tissue (SKBR3) [6] | MTD at 14 d [7] | IC50 Breast cancer tissue (SKBR3) [8] | IC50 Ovarian cancer tissue (A2780) (A2780 (ovarian cancer)) | IC50 Non-small cell lung cancer tissue (A549) [9] | IC50 Sarcoma tissue (SJSA-1) (SJSA-1 (sarcoma tissue)) | Percentage of release efficiency (%) Colorectal cancer tissue (colo320) [10] | IC50 Colorectal cancer tissue (colo320) [11] | Percentage of release efficiency (%) Ovarian cancer tissue (A2780) [12] | Percentage of release efficiency (%) Heart tissue [13] | other results
1 | CC[C@@]1(O)C(=O)OCc2c1cc1n(c2=O)Cc2c-1nc1ccccc1c2CCN(C(=O)[C@H](CC(C)C)NC(=O)[C@H](CC(N)=O)NC(=O)[C@H](C)NC(=O)[C@H](C)NC(=O)CCOCCOCCOCCOCCOCCOCCNC(=O)CCN1C(=O)C=CC1=O)C(C)C [MI-6PEG-AANL-Belotecan] ({Propanoyl(3-maleimido)-PEG6}-AANL-Belotecan) | +24% | +21% | +2% | +2% | −1.3% | 76.5% | 75.5% | 69.5% | 150 mg/kg | 2.48 µg/mL (≈ 1.92 µM) | 0.91 µg/mL (≈ 0.706 µM) | 1.55 µg/mL (≈ 1.2 µM) | 0.90 µg/mL (≈ 0.698 µM) | 75.6% | 2.74 µg/mL (≈ 2.12 µM) | 81.2% | 2.5% | Mouse weight (%) ([2]; 15 mg/kg once a week for four weeks, Table 8): +22%
2 | CCN(CCc1c2c(nc3ccccc13)-c1cc3c(c(=O)n1C2)COC(=O)[C@]3(O)CC)C(=O)[C@H](CC(C)C)NC(=O)[C@H](CC(N)=O)NC(=O)[C@H](C)NC(=O)[C@H](C)NC(=O)CCOCCOCCOCCOCCOCCOCCNC(=O)CCN1C(=O)C=CC1=O [MI-6PEG-AANL-D2] ({Propanoyl(3-maleimido)-PEG6}-AANL-{NEt(2-(20S-CPT-7-yl)ethyl)}) | +41% | +24% | +19% | +19% | +1.9% | 73.6% | 67.1% | 73.5% | 200 mg/kg | 3.28 µg/mL (≈ 2.57 µM) | 1.31 µg/mL (≈ 1.03 µM) | 2.57 µg/mL (≈ 2.02 µM) | 1.58 µg/mL (≈ 1.24 µM) | 65% | 4.65 µg/mL (≈ 3.65 µM) | 71.3% | 0.9% | SJSA-1 (sarcoma tissue) growth rate (%) [1, 14]: 1316.56%; SJSA-1 (sarcoma tissue) mean tumor volume (mm^3) [1, 14]: 1645.7 mm^3; SJSA-1 (sarcoma tissue) growth rate (%) [1, 15]: 964.08%; SJSA-1 (sarcoma tissue) mean tumor volume (mm^3) [1, 15]: 1213.3 mm^3; colo320 (colorectal cancer cell) growth rate (%) [2, 16]: 760.87%; colo320 (colorectal cancer cell) mean tumor volume (mm^3) [2, 16]: 894.4 mm^3; colo320 (colorectal cancer cell) growth rate (%) [2, 17]: 760.87%; colo320 (colorectal cancer cell) mean tumor volume (mm^3) [2, 17]: 894.4 mm^3; SJSA-1 (sarcoma tissue) mean tumor volume (mm^3) Day 1 ([3]; Day 1): 136.59 mm^3; SJSA-1 (sarcoma tissue) mean tumor volume (mm^3) Day 4 ([3]; Day 4): 465.17 mm^3; SJSA-1 (sarcoma tissue) mean tumor volume (mm^3) Day 7 ([3]; Day 7): 891.36 mm^3; SJSA-1 (sarcoma tissue) mean tumor volume (mm^3) Day 10 ([3]; Day 10): 1320.55 mm^3; SJSA-1 (sarcoma tissue) growth rate (%) on Day 14 ([3]; Day 14): 1623.94%; SJSA-1 (sarcoma tissue) mean tumor volume (mm^3) Day 14 ([3]; Day 14): 2218.14 mm^3
